Results on one variant are retold here after IntAct's records for PubMed 12845325.

The labels stand for the following.
B1: Integrin alpha-L (Homo sapiens), P20701 (parent)
chain: MKDSCITVMAMALLSGFFFFAPASSYNLDVRGARSFSPPRAGRHFGYRVLQVGNGVIVGAPGEGNSTGSLYQCQSGTGHCLPVTLRGSNYTSKYLGMTLATDPTDGSILACDPGLSRTCDQNTYLSGLCYLFRQNLQGPMLQGRPGFQECIKGNVDLVFLFDGSMSLQPDEFQKILDFMKDVMKKLSNTSYQFAAVQFSTSYKTEFDFSDYVKRKDPDALLKHVKHMLLLTNTFGAINYVATEVFREELGARPDATKVLIIITDGEATDSGNIDAAKDIIRYIIGIGKHFQTKESQETLHKFASKPASEFVKILDTFEKLKDLFTELQKKIYVIEGTSKQDLTSFNMELSSSGISADLSRGHAVVGAVGAKDWAGGFLDLKADLQDDTFIGNEPLTPEVRAGYLGYTVTWLPSRQKTSLLASGAPRYQHMGRVLLFQEPQGGGHWSQVQTIHGTQIGSYFGGELCGVDVDQDGETELLLIGAPLFYGEQRGGRVFIYQRRQLGFEEVSELQGDPGYPLGRFGEAITALTDINGDGLVDVAVGAPLEEQGAVYIFNGRHGGLSPQPSQRIEGTQVLSGIQWFGRSIHGVKDLEGDGLADVAVGAESQMIVLSSRPVVDMVTLMSFSPAEIPVHEVECSYSTSNKMKEGVNITICFQIKSLIPQFQGRLVANLTYTLQLDGHRTRRRGLFPGGRHELRRNIAVTTSMSCTDFSFHFPVCVQDLISPINVSLNFSLWEEEGTPRDQRAQGKDIPPILRPSLHSETWEIPFEKNCGEDKKCEANLRVSFSPARSRALRLTAFASLSVELSLSNLEEDAYWVQLDLHFPPGLSFRKVEMLKPHSQIPVSCEELPEESRLLSRALSCNVSSPIFKAGHSVALQMMFNTLVNSSWGDSVELHANVTCNNEDSDLLEDNSATTIIPILYPINILIQDQEDSTLYVSFTPKGPKIHQVKHMYQVRIQPSIHDHNIPTLEAVVGVPQPPSEGPITHQWSVQMEPPVPCHYEDLERLPDAAEPCLPGALFRCPVVFRQEILVQVIGTLELVGEIEASSMFSLCSSLSISFNSSKHFHLYGSNASLAQVVMKVDVVYEKQMLYLYVLSGIGGLLLLLLIFIVLYKVGFFKRNLKEKMEAGRGVPNGIPAEDSEQLASGQEAGDPGCLKPLHEKDSESGGGKD
partner: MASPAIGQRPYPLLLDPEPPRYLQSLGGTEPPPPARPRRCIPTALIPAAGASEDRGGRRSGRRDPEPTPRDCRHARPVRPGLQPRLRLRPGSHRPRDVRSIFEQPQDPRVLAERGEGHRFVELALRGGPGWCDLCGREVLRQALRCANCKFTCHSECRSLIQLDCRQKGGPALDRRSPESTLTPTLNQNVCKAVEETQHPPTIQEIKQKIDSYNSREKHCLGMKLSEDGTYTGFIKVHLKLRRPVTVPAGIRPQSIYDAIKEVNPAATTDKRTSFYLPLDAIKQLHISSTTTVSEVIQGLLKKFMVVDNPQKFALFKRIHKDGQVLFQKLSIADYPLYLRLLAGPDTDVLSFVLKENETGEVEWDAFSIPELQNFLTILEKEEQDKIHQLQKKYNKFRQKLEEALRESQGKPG

This assay covers variants of B1. The following applies: with rasf5_mouse Rassf5, Q5EBH1.
Regarding K1122A;K1124A, the “effect of a mutation on the interaction” value was “disrupting interaction”.
